According to the supplement of paper PMC7877785:
± gives the uncertainty stated by the source.

Assay: self-splicing fitness, log relative to wild type (ln ratio); higher = more splicing; Tetrahymena group I intron in knt gene, E. coli kanamycin selection, DiMSum; sequences stand for … in CUCUCU…GGAGGGAAAAGUUAUCAGGCAUGCACCUGGUAGCUAGUCUUUAAACCAAUAGAUUGCAUCGGUUUAAAAGGCAAGACCGUCAAAUUGCGGGAAAGGGGUCAACAGCCGUUCAGUACCAAGUCUCAGGGGAAACUUUGAGAUGGCCUUGCAAAGGGUAUGGUAAUAAGCUGACGGACAUGGUCCUAACCACGCAGCCAAGUCCUAAGUCAACAGAUCUUCUGUUGAUAUGGAUGCAGUUCACAGACUAAAUGUCGGUCGGGGAAGAUGUAUUCUUCUCAUAAGAUAUAGUCGGACCUCUCCUUAAUGGGAGCUAGCGGAUGAAGUGAUGCAACACUGGAGCCGCUGGGAACUAAUUUGUAUGCGAAAGUAUAUUGAUUAGUUUUGGAGUACUCGUGGUCG
Procedure, shortened: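 Colonies from six replicate transformations of E. coli BL21(DE3) were pooled and amplicon-sequenced on an Illumina HiSeq 2500. The library placed an intron with all eight P1ex-region nucleotides randomised inside the knt kanamycin-resistance gene on pET-22b(+), and cells grew overnight at 37°C or 30°C on LB agar with or without 25 μg/mL kanamycin (plus 100 μg/mL carbenicillin, 50 μM IPTG, 0.2% rhamnose). Fitness is the DiMSum error-weighted combination of wild-type-normalised replicate fold changes, kanamycin versus none.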

| Sequence | self-splicing fitness (ln) (30 °C) | self-splicing fitness (ln) (37 °C) |
| --- | --- | --- |
| AUCUAGCAAUAUUACGGCAA | -0.584 ± 0.14 | -0.113 ± 0.14 |
| AAACAGCAAUAUUACGAAGG | -3.85 ± 0.13 | -2.2 ± 0.15 |
| UAUCAGCAAUAUUACGUAAU | -1.62 ± 0.073 | -0.784 ± 0.077 |
| UUCGAGCAAUAUUACGACAG | -2.81 ± 0.19 | -1.5 ± 0.13 |
| AAAAAGCAAUAUUACGGAGA | -3.49 ± 0.19 | -3.11 ± 0.18 |
| CCUCAGCAAUAUUACGCAGA | -3.39 ± 0.34 | -2.27 ± 0.33 |
| UACCAGCAAUAUUACGUCUU | -1.99 ± 0.08 | -0.209 ± 0.086 |
| CGACAGCAAUAUUACGCUAC |  | -1.12 ± 0.28 |
| UGCAAGCAAUAUUACGAAGC |  | -1.87 ± 0.4 |
| GCCUAGCAAUAUUACGUGCC | -3.38 ± 0.23 | -2.08 ± 0.23 |
| ACCAAGCAAUAUUACGCCGG | -2.33 ± 0.13 | -0.125 ± 0.13 |
| UGGUAGCAAUAUUACGUCCA | -0.714 ± 0.24 | -0.608 ± 0.3 |
| CCCGAGCAAUAUUACGCGUC | -5.24 ± 0.32 | -2.91 ± 0.23 |
| UAUGAGCAAUAUUACGUACG | -2.35 ± 0.19 | -1.34 ± 0.21 |
| ACUAAGCAAUAUUACGUAAG | -1.05 ± 0.069 | -0.663 ± 0.089 |
| UAGGAGCAAUAUUACGCGAU | -3.84 ± 0.47 | -2.68 ± 0.34 |
| AGAGAGCAAUAUUACGGUCC | -2.21 ± 0.3 | -0.974 ± 0.46 |
| CAUAAGCAAUAUUACGUCUU | -3.71 ± 0.17 | -2.41 ± 0.19 |
| CUUUAGCAAUAUUACGCACU | -3.69 ± 0.44 | -1.83 ± 0.19 |
| GACUAGCAAUAUUACGACUA | -1.04 ± 0.16 | -0.443 ± 0.14 |
| CUAGAGCAAUAUUACGAUUU | -3.17 ± 0.2 | -1.48 ± 0.25 |
| CCGAAGCAAUAUUACGGGAG | -2.67 ± 0.18 | -2.46 ± 0.23 |
| GUAUAGCAAUAUUACGUAAA | -2.75 ± 0.31 | -1.66 ± 0.31 |
| AAUAAGCAAUAUUACGUCAG | -3.34 ± 0.18 | -1.82 ± 0.13 |
| AAGCAGCAAUAUUACGGAUA | -2.22 ± 0.2 | -1.72 ± 0.15 |
| GUAUAGCAAUAUUACGCAUA | -2.3 ± 0.28 | -0.525 ± 0.27 |

| Sequence | self-splicing fitness (ln) (30 °C) | self-splicing fitness (ln) (37 °C) |
| --- | --- | --- |
| UGUCAGCAAUAUUACGAAAG | -1.72 ± 0.14 | -1.21 ± 0.17 |
| GUUCAGCAAUAUUACGUGGU | -1.03 ± 0.057 | -0.621 ± 0.079 |
| ACGUAGCAAUAUUACGUCAA | -3.44 ± 0.27 | -2.34 ± 0.19 |
| CUGAAGCAAUAUUACGCGCG | 0.18 ± 0.092 | -0.0678 ± 0.075 |
| UAGUAGCAAUAUUACGUUAA | -2.34 ± 0.17 | -2.06 ± 0.17 |
| AGGGAGCAAUAUUACGAUAG | -2.56 ± 0.23 | -2.66 ± 0.3 |
| CAAGAGCAAUAUUACGGCUA | -3.05 ± 0.31 | -1.97 ± 0.22 |
| AAUGAGCAAUAUUACGGACG | -2.44 ± 0.2 |  |
| UCAAAGCAAUAUUACGGUGA | -0.776 ± 0.098 | -0.408 ± 0.11 |
| CCAAAGCAAUAUUACGUUGA | -3.42 ± 0.29 | -0.401 ± 0.14 |
| ACCAAGCAAUAUUACGUCCA | -2.01 ± 0.096 | -1.3 ± 0.1 |
| UCAGAGCAAUAUUACGAGUU | -2.22 ± 0.2 | -0.115 ± 0.27 |
| CCAAAGCAAUAUUACGACCG | -0.022 ± 0.096 | -0.0691 ± 0.14 |
| CUGCAGCAAUAUUACGCAGC | -2.88 ± 0.32 |  |
| AAAGAGCAAUAUUACGGCUC | -2.64 ± 0.21 | -1.67 ± 0.21 |
| GUCCAGCAAUAUUACGUAGA | -0.646 ± 0.064 | -0.201 ± 0.086 |
| UGGCAGCAAUAUUACGGGCC |  | -1.78 ± 0.28 |
| GUCCAGCAAUAUUACGUCAA | -1.23 ± 0.12 | -1.99 ± 0.14 |
| CGAGAGCAAUAUUACGCAUC | -3.04 ± 0.35 | -2.33 ± 0.35 |
| UACCAGCAAUAUUACGCUCG | -0.415 ± 0.093 | -0.203 ± 0.11 |
| UGUUAGCAAUAUUACGUGAC | -2.93 ± 0.31 | -2.01 ± 0.29 |
| CGCAAGCAAUAUUACGCCCG | -1.22 ± 0.21 | -1.93 ± 0.31 |
| AAGAAGCAAUAUUACGCGUA | -1.39 ± 0.099 | -0.914 ± 0.082 |
| AAUGAGCAAUAUUACGGCCA |  | 0.411 ± 0.39 |
| UGUUAGCAAUAUUACGCGAG | -3.15 ± 0.25 | -2.42 ± 0.19 |
| AAUAAGCAAUAUUACGCACG | -1.06 ± 0.11 | -0.851 ± 0.14 |

| Sequence | self-splicing fitness (ln) (30 °C) | self-splicing fitness (ln) (37 °C) |
| --- | --- | --- |
| UAGUAGCAAUAUUACGAGCA | -1.07 ± 0.12 | -0.0288 ± 0.12 |
| AAGAAGCAAUAUUACGUCGU | -1.31 ± 0.058 | -0.567 ± 0.073 |
| UACGAGCAAUAUUACGAACA | -2.11 ± 0.27 | -2.13 ± 0.29 |
| ACAAAGCAAUAUUACGGGCU | -1.07 ± 0.055 | -0.972 ± 0.088 |
| UCAGAGCAAUAUUACGCAUU | -3.35 ± 0.43 | -0.634 ± 0.19 |
| UGAUAGCAAUAUUACGUUGU | -4.45 ± 0.29 | -2.98 ± 0.21 |
| CAAAAGCAAUAUUACGAGCU | -3.99 ± 0.21 | -1.96 ± 0.13 |
| UUAAAGCAAUAUUACGGGUC | -3.44 ± 0.22 | -2.48 ± 0.24 |
| UCGGAGCAAUAUUACGCCGA | -3.12 ± 0.32 |  |
| GGGGAGCAAUAUUACGCGUA | -1.53 ± 0.38 | -1.13 ± 0.3 |
| AUAAAGCAAUAUUACGCGCA | 0.0901 ± 0.058 | -0.398 ± 0.075 |
| UAUAAGCAAUAUUACGGGCC | -2.99 ± 0.31 |  |
| UAGAAGCAAUAUUACGGCAA | -0.122 ± 0.075 | -0.249 ± 0.088 |
| GCUCAGCAAUAUUACGUCAG | -4.87 ± 0.42 | -3.23 ± 0.16 |
| GAGAAGCAAUAUUACGAGGA | -3.83 ± 0.33 | -2.11 ± 0.19 |
| GGUCAGCAAUAUUACGACGC | -0.817 ± 0.13 | -0.318 ± 0.18 |
| AGGAAGCAAUAUUACGCAUA | -2.39 ± 0.18 | -1.15 ± 0.16 |
| UUCAAGCAAUAUUACGCCGA | -0.5 ± 0.18 | -0.423 ± 0.23 |
| GAAUAGCAAUAUUACGGACC | -0.00208 ± 0.1 | 0.0435 ± 0.18 |
| UCGCAGCAAUAUUACGACGG | -1.15 ± 0.069 | -0.0065 ± 0.1 |
| AUUCAGCAAUAUUACGAGUA | -1.81 ± 0.2 | -1.24 ± 0.18 |
| UACUAGCAAUAUUACGUGUU | -3.16 ± 0.15 | -0.975 ± 0.13 |
| ACCUAGCAAUAUUACGGCGG | -1.36 ± 0.12 | -1.6 ± 0.14 |
| AUUGAGCAAUAUUACGCGCU | -2.3 ± 0.29 | -1.29 ± 0.41 |
| GCUUAGCAAUAUUACGAACC | -0.273 ± 0.23 | -0.336 ± 0.27 |
| GCGUAGCAAUAUUACGUGCG | -4.01 ± 0.17 | -1.62 ± 0.14 |
